Key:
[1] = target: T1, Atto643-labeled his6-β1 integrin cytoplasmic tail peptide (UniProt P05556 752-798, Atto643 label (position not given)); assay: FRAP of the tethered partner on supported lipid bilayers (slowdown of diffusion); his6-β1 tails tethered to DGS-NTA-Ni on 5% PIP3 supported lipid bilayer; 1 μM kindlin or 1 μM talin, 30-min incubation; HEPES buffer pH 7.4, 150 mM KCl, 2.5 μM ZnCl2; t1/2_fast against β1 tails alone; details: both partners purified
T1 construct: integrin β1 cytoplasmic tail; Tethered by its his6 tag to DGS-NTA-Ni lipids of the supported lipid bilayer; also called β1 tails; his6-tagged integrin β1 tails; source: synthetic peptide (synthesized and purified by the MPIB Core Facility)
T1 peptide (looked up): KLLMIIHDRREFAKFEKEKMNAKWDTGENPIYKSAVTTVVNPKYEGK

[2] = target: T1, Atto643-labeled his6-β1 integrin …; assay: FRAP of the tethered partner on supported lipid bilayers (slowdown of diffusion); his6-β1 tails tethered to DGS-NTA-Ni on 5% PIP2 supported lipid bilayer; 1 μM kindlin or 1 μM talin, 30-min incubation; HEPES buffer pH 7.4, 150 mM KCl, 2.5 μM ZnCl2; t1/2_fast against β1 tails alone; details: both partners purified

B1: Kindlin-2 (natural protein, UniProt Q96AC1 1-680, looked up)
chain: MALDGIRMPDGCYADGTWELSVHVTDLNRDVTLRVTGEVHIGGVMLKLVEKLDVKKDWSDHALWWEKKRTWLLKTHWTLDKYGIQADAKLQFTPQHKLLRLQLPNMKYVKVKVNFSDRVFKAVSDICKTFNIRHPEELSLLKKPRDPTKKKKKKLDDQSEDEALELEGPLITPGSGSIYSSPGLYSKTMTPTYDAHDGSPLSPTSAWFGDSALSEGNPGILAVSQPITSPEILAKMFKPQALLDKAKINQGWLDSSRSLMEQDVKENEALLLRFKYYSFFDLNPKYDAIRINQLYEQAKWAILLEEIECTEEEMMMFAALQYHINKLSIMTSENHLNNSDKEVDEVDAALSDLEITLEGGKTSTILGDITSIPELADYIKVFKPKKLTLKGYKQYWCTFKDTSISCYKSKEESSGTPAHQMNLRGCEVTPDVNISGQKFNIKLLIPVAEGMNEIWLRCDNEKQYAHWMAACRLASKGKTMADSSYNLEVQNILSFLKMQHLNPDPQLIPEQITTDITPECLVSPRYLKKYKNKQITARILEAHQNVAQMSLIEAKMRFIQAWQSLPEFGITHFIARFQGGKKEELIGIAYNRLIRMDASTGDAIKTWRFSNMKQWNVNWEIKMVTVEFADEVRLSFICTEVDCKVVHEFIGGYIFLSTRAKDQNESLDEEMFYKLTSGWV
notes: Kindlin-2; the species may be mouse there; source: E. coli (DE3) Rosetta 2, purified (Ni-NTA IMAC, SenP2 digest, size-exclusion chromatography); not shown: His-SUMO, N-terminal, cleaved
fold slowdown of β1 tail diffusion against β1 tails alone [1]: 3.3 times | fold slowdown of β1 tail diffusion against β1 tails alone [2]: 2.6 times
